Data on 23 sequences can be found in a protein production outcome set (Wang et al. 2014).

The data set in a line: label from the status in PepcDB records.
As for “MIMNKIKKILKFCTLKKYDTSSALGREQERYRIISLSVISSLISKILSLLSLILTVSLTLPYLGQERFGVWMTITSLGAALTFLDLGIGNALTNRIAHSFACGKNLKMSRQISGGLTLLAGLSFVITAICYITSGMIDWQLVIKGINENVYAELQHSIKVFVIIFGLGIYSNGVQKVYMGIQKAYISNIVNAIFILLSIITLVISSKLHAGLPVLIVSTLGIQYISGIYLTINLIIKRLIKFTKVNIHAKREAPYLILNGFFFFILQLGTLATWSGDNFIISITLGVTYVAVFSITQRLFQISTVPLTIYNIPLWAAYADAHARNDTQFIKKTLRTSLKIVGISSFLLAFILVVFGSEVVNIWTEGKIQVPRTFIIAYALWSVIDAFSNTFASFLNGLNIVKQQMLAVVTLILIAIPAKYIIVSHFGLTVMLYCFIFIYIVNYFIWYKCSFKKHIDRQLNIRG”, the protein production result is “failed”.
To “MADQSFAVLGLGKFGMALTVALLKAEQDVLVIDSNEEVINDVAHLVTHAVIADATDEDELRDLDIGSFDHVFVTMGENVEGSIITTMLAKKLGAPDVTTRANNHNHRLVLEKIGADHVIEPEQDMARQLIFRQLHPNVVNYFNLSKNISLIEVSVENSRFFNQSLGDLDFRKNYDVSVIGIVHDGKLNQVPLATDVIAPHDQITLIGSNKAVQRLDDILREEK” belongs “failed”; to “MSAARQGVAQARRIVVKVGSSSLTTAAGGLDADRVDALVDVLAKSRSGGEKEIVLVSSGAIAAGLAPLGLRRRPKDLARQQAAASVGQGLLVARYTASCARHGIRVGQVLLTSDDTSRRAHHRNASRTLDKLLAMGALPVVNENDTVATDEIRFGDNDRLAALVAHLVRADLLVLLSDVDGVYDGDPSKPGTSRVAQVHGPQDLAHVEIGSAGRAGVGTGGMVTKIEAARIAAAAGIPVVLTSAVHAADALAGRDTGTYFHPTGKRSADRLLWLQHASTPQGALTLDDGAVRAVVERRKSLLPAGIAAVEGEFTAGDPVELRDSEGRAVARGLVSFDAKEIPQLLGRSTRELARELGPAYEREVVHRDDLVLLQP”, “failed”; to “MSFNVFSGSFGQIFKRSRKNSHEYKNENATFELIKSSILVAFSGALRIHLAFLLMYIQSNILVCIAGGLIIYTVYTLDRALGSEEDSVNRKELNGSNKKVGLTVSLLAFMVGTYILAGEEMLPLAFIPFVTGYLYSKGIKIGKFALKLKGGLGVKNIVVGLTWGIFIAGLAGSGCRNLIPVVLIFIFFGVKLFINSTIYDFKDIAGDTLAGINTLPVSLGVRKTRNLLTGMHLFSHLVIGVALIHGALAFEPLIVLYSFVCGLICIQKFTHPEYEEFPSQKMERTLLVDGESTSITGLRIAGYLIA”, “failed”.
As for “LETYNTCDTPPPLNNLTPYRDDGKEALKFYTDPSYFFDLWKEKMLQDTKDIMKEKRKHRKEKKDNPNRGNVNPRKIKTRKEEWEKMKMGQEF”, the protein production result is on record as “failed”.
For the sequence “VPRIAEVRDAAEPSSEEQRARHVRMLEAAIELATEKELARVQMHEVAKRAGVAIGTLYRYFPSKTHLFVAVMVDQIDRMGVGFKKSAPPGESPQDAVYNVLVRATRGLLRRPALSTAMIQSTSTANVASVPDAGKVDRAFRQIMLDAAGIEHPTEEDLTALRLLVQLWFGVIQSCLNGRVSIPDAESDIRRACDLLLVNLSHR”, the protein production result is reported as “not failed”.
Turning to “MRKAWVKTLALDRVSNTPVVILGIEGTNRVLPIWIGACEGHALALAMEKMEFPRPLTHDLLLSVLESLEARVDKVIIHSLKDNTFYATLVIRDLTYTDEEDEEAALIDIDSRPSDAIILAVKTGAPIFVSDNLVEKHSIELEVNETQDEEEEFKKFVENLNIDTFKQMIEKKREEDEEGES”, the protein production result is reported as “not failed”.
As for “MTVNAKTSPSAGNTWRDLPAAQQPEYPDTEALRAVIADLESYPPLVFAGECDQLRARMAAVAKGEAFLLQGGDCAEAFDAVSADHIRNKLKTLLQMGAVLTYAASVPVVKVGRIAGQYSKPRSKPTETRDGVTLPTYRGDSVNGFDFTEAARIPDPERLKRMYHASASTLNLVRAFTTGGYADLRQVHAWNQDFVKSSPSGQRYEQLAREIDNALNFMRACGTDPAEFQTVEFFSSHEALLLDYESALTRVDSRTGQLYDVSGHMVWIGERTRQLDHAHIEFASRIRNPIGIKLGPSTTAEEALQYIERLDPEREPGRLTFIVRMGADKIRDKLPELVEKVTASGATVAWITDPMHGNTYEAASGHKTRRFDDVLDEVKGFFEVHKSLGTHPGGIHVELTGDDVTECVGGGDEIFVDDLHQRYETACDPRLNRSQSLDLAFLVAEMYRDQ”, the entry is “not failed”; as for “MPPRIEDILPHRGSMLLLAHVDTWDDETLRASAHVDPTAWYADPEGAMPAWFGIELMAQAIAAHVGLLSMREGNPARPGVLLGSRKYEAHAPAFAPAQPLSIAVQEVLRSTEGHGAYACTIAAGGRDLAQAVIKVYQPTDFQAFIEGLEHHHHHH”, “failed”; as for “MSLSDLLYEIQDKVGLLTMNRISKHNAFDNQLLTEMRIRLDSAINDTNVRVIVLKANGKHFSAGADLTWMQSMANFTEEENLEDSLVLGNLMYSISQSPKPTIAMVQGAAFGGGAGLAAACDIAIASTSARFCFSEVKLGLIPAVISPYVVRAIGERAAKMLFMSAEVFDATRAYSLNLVQHCVPDDTLLEFTLKYASQISNNAPEAVKNSKQLAQYVANKKIDEELVRYTASLIAHKRVSDEGQEGLKAFLNKEIPNWNEGHHHHHH”, “not failed”.
On to “MGNTDKLMNQIFDLKFTSKSLQRQSRKCEKEEKAEKLKVKKAIEKGNMDGARIYAENAIRKRSEQMNYLRLASRLDAVVARLDTQAKMTTITKSMTNIVKSLESSLATGNLQKMSETMDSFEKQFVNMEVQAEFMENAMAGSTSLSTPEGEVNSLMQQVADDYGLEVSVGLPQPAGHAIPTKTEEKVDEDDLSRRLAELKARG”, for which the protein production result was “failed”.
Turning to “MKDIIITSQKIKRERNIYLICFLLSFAINIIAILVYTRPWIEIFTQLGYVLVISFFIYFILWIPRILVIGLRHLLRKKK”, the protein production entry is “failed”.
With “MTTSIGGLFFNLVALSLLSAIGLGVVHGITYSKWMPLLGNNATFGIHKFSIQVNVKECIKGCMLAILTMVPFIIVIGIMIAPVFQQLMMMTMLGGSDAGSEFVLQYYPQIMASYFLYFVAILVFASYLYVTLRNLFLNNLTLANGTIRFHSSVTAIGMLLRMLAVLMGSSITCGLAYPWLKMWMVSWIANNTHVQGDLDSLELTNDDKPQDSGSLMWISRGIMPYVPFI”, the protein production result is “failed”.
With “MSIEMKTQLGTVDVSKDVVATIAGGAAVDCYGIVGMASQKQIKDGLSELLGRENFRRGVVIREEEDEIHIDMYIIVSYGTKISEVAYNVQTKVKYQLETMLGIDVDSVNIFVQGVRVTNPLEHHHHHH”, the protein production result is recorded as “failed”.
For “MSLDSDVIVDRRRMRRKLTFWRVAAVLVAIVAVVAIGAMVSPAGRGALTSTGSIARIKIEGLIRSNDERVQALDRLGKSSYSAVIVHINSPGGTTAGSEELHDALARLKAKKPMVVVVEGLAASGGYIAALASEHIVAQQTSLVGSIGVLFQYPNVSELLKTVGVKVEEVKSSPLKAAPNGFEPTSPEARAAIEALVKDSYAWFRGMVQQSRKMTDDQLNVVADGRVFTGRQAVGLKLIDELGDERTAIAWLEKAKNVKAGLPVRDYKLAPQFGDLTFLRAAASVAFDAAGLGVIARRVEQTGAMQSVERLGLDGMLALWAPSAGQ”, the protein production entry is “failed”.
“MTAHKQPEANETESLLEQVQALESEVRGVVKTQLQLAGMETRRAGESFVRMVAFAVLAACLAFTAWAVLVTAAVIAIVNSSVMSLTTALVIVAVAHLAAAFYIVRYIKRRSRDLLFAETSSSL”: the protein production result is on record as “failed”.
Take “MSFKGEITHLVPNELYAFKVVEGPFHYTGTYRFKPHPEGTWIEWVFEAEPGSFFGVLPPALLKKMVLAQFKKDVDNLQALAQKGEAYESVGNENKPTLETNKPPHKTQQMMERYARWILSHRRIVLEHHHHHH”: the protein production entry is listed as “failed”.
Consider “MTQQLFTLFAVFISLFLFGMAVMRAGLLTMNAEKARVGILRFVDNPLKGFFVGLLLTILLQSSSAVMIVTIGFVAAGYVTFRQSIGIILGTNVGTCFTVELIALDLHSLIVPLLLIGLIGLAIPHLITYCLGCVSFGLACIFISMNGLENLASPLAAIPAIQAFIELTNDWLIVGAGVGTLLTALIQSSTATTAIAMGFLNEEIIGIHGGIAIMLGANIGTCFTALLASIGSGRTSRLVAFAHLWLNVIGVLLFIPLIPHLSHFVMTLTTIPAIQLAHASTIFNVICSLAILPFVKPFASFIETLHGPSQ”, for which the protein production result was “failed”.
To “MTQKRKLDAASPGDPHDFAADGIERQTLRMVEQALRADRLMLAWQPVVVASEAARTVFHEGLIRVLDETGRIIPARDFMSAVETQDLGRLIDCASLEKGLATLARHPGLRLSINMSARSIGHGRWMQILQGALRADPNLGPRLILEITESSAMEVPELVLPFMDALQRAGISFALDDFGAGFTAFRYLKDFFFDIIKIDGQFIRNIHRDPDNQVLTQAMLSVGRHFDMLTVAETVETAEEAEWLRAAGVDCLQGYLFGRPCTQPAWQATGTRLIA” belongs “failed”; to “KNVNNAEEYWDVIDLRVYPGKNGYFELYDDDGITYEYEKGKYYIIPITWDEDKQELTIGKKRGELEMSKKIIKIIWVEKGKGIEHTKPDVEIEYNGKETITVKRG”, “failed”; to “MPGSALKYRDLRDFLAQLERQGELKRITAPVSTRLEMTEIADRVLRAGGPALLFENARHNDAPADMPVLANLFGTPRRVAWGMGADDVGALRETGELLASLREPEAPKGLRDALAKVSMLKAALWDMSPKTVRSAACQEIVWEGADVELSRLPIQTCWPGDVAPLLAWGLVITRGPNARRQNLGIYRQQPLGPNKLIMRWLSHRGGALDFRDHAQAHPGKPFPITVALGADPATILGAVTPVPDTLSEYQFAGLLRGSRTEVVKALGSDLSVPASAEIVLEGHLLPADDPRAVAAVVPEGANPPPATGYEMALEGPYGDHTGYYNEQDWFPVFTVDRITMRRNPIYHSTYTGKPPDEPAVLGVALNEVFVPLLRRQLPEIVDFYLPPEGCSYRLAVVSIRKQYAGHAKRVMFGLWSVLRQFMYTKFIVVVDEDIDPRDWTEVVWAMTTRMDPVRDTVLVENAPIDYLDFASPVSGLGGKMGLDATNKWPGETSREWGTPIHMDEAVKRRVDAMWDTLGLLEHHHHHH”, “failed”.
For the sequence “MSNKPASQQTRLTDWLIFLAVPFFFSSNVIFGRGVVGEVSPFIAAFIRWMGSTLIIAPFMIADWRNCLAFVRDKMLLWLVLGILGMGICGGVVYWGLTMTTAANGTLIYTTSSLFIILFQRIFQGRPIRKLEVAGMVIAFAGVAAIVLKGDISALRHMNFNIGDFAILTAAIAFAIYSLLLRDPAARQMASFSLFGLIAFSGALVLLPPAALELAQGGMLPATGAAWAKIGGIILFASLLAFYCFTHTVRVFGPATAGITLYMMPPVSILMATIFLGETFETYHAIGIVLVTGGVILATAPIGRKR”, the protein production result is listed as “failed”.
To “MTTANTPVRPKSAIDAVADAYTEKLIELNPSFATTLGLPGHETEYQDYSPAGAAAHAEATRLALEALAGLEPSDDVDAVTLDAMRERLGLELEIHQSGWDAADLNNIASPAQDIRAIFDLMPTDTVEHWEHIAGRAANVPGAIEGYIASLRAAKDDRKVAAARQIRIVIEQTGRYAAEDGFFAKMAADASLGDAPLPAEVQDKLDAGTSAARSAYSALGAFLRDELLPVAPEKDAVGRERYSLASRSFIGAEVDLEETYAWGVQELERLISEQEKVAGQIKPGASIEEAKSILNNDPARQIKGTDALKAWMQELSDRAVSELADVHFDIPDVMKTLECMIAPTDEGGIYYTGPSDDFSRPGRMWWSVPAGEDTFTTWSETTTVFHEGVPGHHLQVATATYRRELLNNWRRNVCWVSGHGEGWALYAEQLMLELGYLKDPGDHMGMLDGQRMRAARVVFDIGVHLELPVPERWGTGTWTPEKGFDFLKANLDISEGQLQFEFTRYLGWPGQAPSYKVGQRLWEQIRAELESREGFDLKSFHSKALNIGSVGLDVLRRALL” belongs “not failed”.
